Experimental data published in patent US20200399314A1 (MEDIKINE, published 2020).
Bridge positions count the residues as written; N and C are the ends. Ends that are not written are not given here.

T1: human IL-2Rα subunit (human, UniProt P01589 22-213, limits assumed)
T1 construct: also called CD25
T1 sequence (looked up): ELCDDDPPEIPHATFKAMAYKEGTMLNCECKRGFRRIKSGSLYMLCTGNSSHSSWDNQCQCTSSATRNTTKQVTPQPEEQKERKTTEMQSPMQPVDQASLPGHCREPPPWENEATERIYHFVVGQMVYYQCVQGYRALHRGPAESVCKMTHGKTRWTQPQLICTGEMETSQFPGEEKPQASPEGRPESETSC

B1: SEQ ID NO 170 (peptide)
peptide: SCTVRWDGDWWVCE
B2: SEQ ID NO 163 (peptide)
peptide: RGCSLRFAEAWECIF
B3: SEQ ID NO 146 (peptide)
peptide: QRCNRSLLDALICQA
B4: SEQ ID NO 136 (peptide)
peptide: TRMCFDDPGWHSCPVV
B5: SEQ ID NO 181 (peptide)
peptide: ATCMLRLLGDGWGCVF
B6: SEQ ID NO 166 (peptide)
peptide: GRCHLVWSDRWECIF
B7: SEQ ID NO 185 (peptide)
peptide: NGCTLSFSGMSWTCVY
modifications: disulfide 3-14 (inferred)
B8: SEQ ID NO 164 (peptide)
peptide: ASCSLVWQDSWVCIF
B9: SEQ ID NO 145 (peptide)
peptide: NHCTLSKTYPWVCVF
modifications: disulfide 3-13 (inferred)
B10: SEQ ID NO 165 (peptide)
peptide: SRCSLVWADSWVCIF
B11: SEQ ID NO 169 (peptide)
peptide: GCTLKWESPNWTCY
B12: SEQ ID NO 11 (peptide)
peptide: FIPWDEYFKQVL
B13: SEQ ID NO 186 (peptide)
peptide: NSCILSNPGLGWQCVF
B14: SEQ ID NO 13 (peptide)
peptide: FIPWEEYFSQLL
B15: SEQ ID NO 14 (peptide)
peptide: FIPWPEYFSQLL
B16: SEQ ID NO 171 (peptide)
peptide: GCSLMWQDGWWVCI
B17: SEQ ID NO 179 (peptide)
peptide: AGCMLLKPGLYWECIF
B18: SEQ ID NO 155 (peptide)
peptide: QACQLVWLDSWVCIF
B19: SEQ ID NO 184 (peptide)
peptide: LACILSKPGEHWECLF
B20: SEQ ID NO 148 (peptide)
peptide: GGCSLVWADSWVCIF
B21: SEQ ID NO 161 (peptide)
peptide: RRCTLVFLDSWECIF
modifications: disulfide 3-13 (inferred)
B22: SEQ ID NO 135 (peptide)
peptide: RQFCLVSPGYEDCWFV
B23: SEQ ID NO 156 (peptide)
peptide: VGCSLVWTDRWECIF
modifications: disulfide 3-13 (inferred)
B24: SEQ ID NO 152 (peptide)
peptide: SRCSLVWTDTWVCVF
B25: SEQ ID NO 182 (peptide)
peptide: GPCRLSNPGTGWECIF
modifications: disulfide 3-14 (inferred)
B26: SEQ ID NO 138 (peptide)
peptide: TTVCDYHPGSRYCINE
B27: SEQ ID NO 158 (peptide)
peptide: ARCSLVWDEAWVCIF
B28: SEQ ID NO 180 (peptide)
peptide: ARCSLHHTGSRYECIF
B29: SEQ ID NO 139 (peptide)
peptide: YASCTYLPGHRGCTLV
B30: SEQ ID NO 137 (peptide)
peptide: TRWCSLHPGVGECVTL
B31: SEQ ID NO 147 (peptide)
peptide: RGCMLRLQPELACVF
B32: SEQ ID NO 144 (peptide)
peptide: SACQLKWDEGWTCLF
B33: SEQ ID NO 172 (peptide)
peptide: GCTLSWNQGWWHCV
B34: SEQ ID NO 173 (peptide)
peptide: GCMLTRGKFWWECI
B35: SEQ ID NO 162 (peptide)
peptide: RGCTLAWEDSWVCIF
modifications: disulfide 3-13 (inferred)
B36: SEQ ID NO 12 (peptide)
peptide: FVPWPEYFLQIM
B37: SEQ ID NO 178 (peptide)
peptide: QRCQLSWSGGELGCMF
modifications: disulfide 3-14 (inferred)
B38: SEQ ID NO 140 (peptide)
peptide: WLPCDDYPGHGYCYSR
modifications: disulfide 4-13 (inferred)
B39: SEQ ID NO 160 (peptide)
peptide: SRCSLVWAENWVCIF
B40: SEQ ID NO 154 (peptide)
peptide: RGCSLVWSGSWECIF
B41: SEQ ID NO 159 (peptide)
peptide: RGCSLVWAGSWECIF
B42: SEQ ID NO 153 (peptide)
peptide: SRCTLVFDDSWVCVF
B43: SEQ ID NO 15 (peptide)
peptide: FVPWDEYFLQIL
B44: SEQ ID NO 174 (peptide)
peptide: GCVLQFSGVWWECV
modifications: disulfide 2-13 (inferred)
B45: SEQ ID NO 183 (peptide)
peptide: KGCTLQNPGSGWVCLF
B46: SEQ ID NO 157 (peptide)
peptide: SGCSLQWADGWVCIF
modifications: disulfide 3-13 (inferred)

The binders below were run against T1, human IL-2Rα subunit.

IC50, < 100 µM:
B1
B2
B3
B4
B5
B6
B7
B8
B9
B10
B11
B12
B13
B14
B15
B16
B17
B18
B19
B20
B21
B22
B23
B24
B25
B26
B27
B28
B29
B30
B31
B32
B33
B34
B35
B36
B37
B38
B39
B40
B41
B42
B43
B44
B45
B46
